The numbers were not newly measured in publication doi:10.1101/2021.01.30.427993, which cites them from elsewhere.

For the series, the system named is Glu165. Particulars: not stated ('in the active site').

Broadly, the pKa is the negative logarithm of the acid dissociation constant. As to Triosephosphate isomerase (TIM), the pKa is 3.9.
